In patent US20200165312A1, “COSMETIC COMPOSITION FOR IMPROVING SKIN CONDITIONS COMPRISING FUSION PROTEIN INCLUDING SKIN PENETRATION ENHANCING PEPTIDE” (LG HOUSEHOLD & HEALTH CARE LTD., priority 2017, published 2020):

Key:
[1] = system: dermal papilla cells; assay: Hair follicle stem cell proliferation: dermal papilla cells, Cell Counter Kit-8; type: cell-based; details: for Proliferation (%): one day, control = 100; for cell proliferation effect compared with the unfused protein: dermal papilla cells
Experimental: (§1) Specifically, dermal papilla cells were inoculated onto a 96-well plate and cultured for 24 hours to obtain cultures at a density of 6,000 cells per well. The cultures were washed with PBS and cultured in a serum-free DMEM medium for one day. The cells were washed with PBS again and cultured in a serum-free DMEM medium supplemented with 1 ng/mL T-PDGFa or PDGFa for one day. The cultures were obtained therefrom and a difference between proliferated amounts of cells was quantitively analyzed using the Cell Counter Kit-8 (Dojindo). Here, dermal papilla cells cultured in a serum-free DMEM medium without T-PDGFa or PDGFa were used as a control (Table 6).
Specifically, dermal papilla cells were inoculated onto a 96-well plate and cultured for 24 hours to obtain cultures at a density of 6,000 cells per well. The cultures were washed with PBS and cultured in a serum-free DMEM medium for one day. […] The cultures were obtained therefrom and a difference between proliferated amounts of cells was quantitively analyzed using the Cell Counter Kit-8 (Dojindo).
as §1, with “T-IGF-1” for “T-PDGFa”, “IGF-1” for “PDGFa”, “15).” for “6).”
as §1, with “10” for “1”, “T-KGF” for “T-PDGFa”, “KGF” for “PDGFa”, “19).” for “6).”
as §1, with “10” for “1”, “T-Tβ4” for “T-PDGFa”, “Tβ4” for “PDGFa”, “23).” for “6).”

[2] = Skin penetrability of growth factor fusion proteins (Franz glass cell, ELISA); type: in vitro ADME, porcine; details: for Penetrated amount (%): 2 μg, 16 hours; for skin penetrability compared with the unfused protein: summary of Tables 7, 12, 16, 20, 24
Experimental: (§2) Specifically, porcine skin (thickness: 0.7 mm, Medikinetics) was placed between upper and lower ends of Franz glass cell (standard diameter: 9 mm, Receiver 5 mL, Permegear), and TBS (50 mM Tris pH 7.5, 150 mM NaCl) including 1% BSA and 0.01% Tween 20 was prepared. Then, 500 μL of the TBS was applied to the upper end of the glass cell (Donor chamber), and 5 mL of the TBS was applied to the lower end of the glass cell, (Receiver chamber). Subsequently, 2 μg of PDGFa or T-PDGFa was applied to the upper end of the glass cell, followed by reaction for 16 hours. Then, a concentration of PDGFa or T-PDGFa was quantitatively analyzed using the ELISA kit (R&D Systems), and a relative amount of T-PDGFa to PDGFa was calculated as a penetrated amount (Table 7).
Specifically, porcine skin (thickness: 0.7 mm, Medikinetics) was placed between upper and lower ends of Franz glass cell (standard diameter: 9 mm, Receiver 5 mL, Permegear), and TBS (50 mM Tris pH 7.5, 150 mM NaCl) including 1% BSA and 0.01% Tween 20 was prepared. Then, 500 μL of the TBS was applied to the upper end of the glass cell (Donor chamber), and 5 mL of the TBS was applied to the lower end of the glass cell, (Receiver chamber).
as §2, with “IGF-1” for “PDGFa”, “T-IGF-1” for “T-PDGFa”, “16).” for “7).”
as §2, with “KGF” for “PDGFa”, “T-KGF” for “T-PDGFa”, “20).” for “7).”
as §2, with “Tβ4” for “PDGFa”, “T-Tβ4” for “T-PDGFa”, “24).” for “7).”

Row | Molecule | Proliferation (%) ([1]; 1 ng/mL T-VEGF or VEGF) | cell proliferation effect compared with the unfused protein [1] | Penetrated amount (%) ([2]; relative to VEGF) | skin penetrability compared with the unfused protein [2] | Proliferation (%) ([1]; 10 ng/mL T-KGF or KGF) | Penetrated amount (%) ([2]; relative to KGF)
1 | T-VEGF: SEQ ID NO: 1 peptide C-terminal linked to N-terminal of VEGF via GG linker (protein, Synthetic Fusion protein of T-VEGF) NGSLNTHLAPILGGAPMAEGGGQNHHEVVKFMDVYQRSYCHPIETLVDIFQEYPDEIEYIFKPSCVPLMRCGGCCNDEGLECVPTEESNITMQIMRIKPHQGQHIGEMSFLQHNKCECRPKKDRARQENPCGPCSERRKHLFVQDPQTCKCSCKNTDSRCKARQLELNERTCRCDKPRR | 310 ± 20 | same level | 295 ± 21 | about three times higher | – | –
2 | T-KGF: SEQ ID NO: 1 peptide C-terminal linked to N-terminal of KGF via GG linker (protein, Synthetic Fusion protein of T-KGF) NGSLNTHLAPILGGCNDMTPEQMATNVNCSSPERHTRSYDYMEGGDIRVRRLFCRTQWYLRIDKRGKVKGTQEMKNNYNIMEIRTVAVGIVAIKGVESEFYLAMNKEGKLYAKKECNEDCNFKELILENHYNTYASAKWTHNGGEMFVALNQKGIPVRGKKTKKEQKTAHFLPMAIT | – | same level | – | about three times higher | 270 ± 15 | 310 ± 12
3 | KGF: keratinocyte growth factor having an amino acid sequence of SEQ ID NO: 44 (protein, Human KGF) CNDMTPEQMATNVNCSSPERHTRSYDYMEGGDIRVRRLFCRTQWYLRIDKRGKVKGTQEMKNNYNIMEIRTVAVGIVAIKGVESEFYLAMNKEGKLYAKKECNEDCNFKELILENHYNTYASAKWTHNGGEMFVALNQKGIPVRGKKTKKEQKTAHFLPMAIT | – | – | – | – | 360 ± 35 | 100 ± 18
